From the RNAGym collection of RNA variant scans (doi:10.7554/elife.90254) come the findings set out here.

B1: LINE1-mini (parent)
chain: GGCAGAGCUCAACACAGCGUGGCAAAGUGGCUGUGGCUAGACUGCC

The variants in this data set derive from B1. Briefly: self-cleavage, relative activity (ratio to wild type); higher = more cleavage; in vitro, sequencing; the parent is a self-cleaving ribozyme.
For U28G U34A, the self-cleavage was 0.26.

Turning to U28G U34G, the self-cleavage was 0.23.

For U28G U34C, the self-cleavage was 0.11.

For the variant G29A G30U, the self-cleavage was determined as 1.41.

On to G29A G30A, for which the self-cleavage is 2.29.

With G29A G30C, the self-cleavage came to 1.52.

Consider G29A C45U, for which the self-cleavage came to 1.67.

For G29A C45A, the self-cleavage came out at 1.03.

As for G29A C45G, the self-cleavage worked out at 0.2.

Take G29A C42G: the self-cleavage was 0.04.

For the variant G29A C42U, the self-cleavage was 0.42.

As for G29A C42A, the self-cleavage was 0.16.

On to U28G G36U, for which the self-cleavage stood at 0.12.

As for U28G G36C, the self-cleavage amounted to 0.05.

U28G G36A: the self-cleavage was 0.12.

As for G30U G36C, the self-cleavage was 0.11.

Take G30U G36U: the self-cleavage was found to be 0.05.

Consider G30U G36A, for which the self-cleavage was 0.19.

In the case of G29C C37A, the self-cleavage was 0.02.

For G29C C37U, the self-cleavage is 0.02.

As to G29C C37G, the self-cleavage was 0.02.

Turning to G29A G35A, the self-cleavage was 0.23.

As to G29A G35U, the self-cleavage worked out at 0.15.

Regarding G29A G35C, the self-cleavage was 0.09.

Take G29C G44U: the self-cleavage came out at 0.37.

For G29C G44A, the self-cleavage worked out at 0.15.

Consider G29C G44C, for which the self-cleavage turned out to be 0.29.

For G30A G33A, the self-cleavage came to 0.1.

With G30A G33C, the self-cleavage is 0.07.

For G30A G33U, the self-cleavage turned out to be 0.08.

As for G30C U34G, the self-cleavage is 0.1.

G30C U34C: the self-cleavage was determined as 0.12.

Take G30C U34A: the self-cleavage was 0.12.

In the case of G30A C45G, the self-cleavage was determined as 0.4.

For the variant G30A C45A, the self-cleavage turned out to be 0.71.

For G30A C45U, the self-cleavage is 1.57.

As to C31A A39G, the self-cleavage worked out at 0.05.

Turning to C31A A39U, the self-cleavage was found to be 0.11.

For C31A A39C, the self-cleavage was determined as 0.05.

With G30U A39C, the self-cleavage worked out at 0.19.

G30U A39G: the self-cleavage was 0.09.

As to G30U A39U, the self-cleavage is 0.87.

On to G30C A39G, for which the self-cleavage amounted to 0.12.

Turning to G30C A39C, the self-cleavage is 0.26.

On to G30C A39U, for which the self-cleavage amounted to 2.23.

Turning to G30A C42U, the self-cleavage was determined as 0.6.

As for G30A C42G, the self-cleavage amounted to 0.05.

As to G30A C42A, the self-cleavage was 0.14.

In the case of G29C U38C, the self-cleavage is 0.11.

Take G29C U38G: the self-cleavage was 0.02.

Consider G29C U38A, for which the self-cleavage amounted to 0.08.

As to G30C U38G, the self-cleavage amounted to 0.03.

As for G30C U38C, the self-cleavage amounted to 0.49.

Regarding G30C U38A, the self-cleavage turned out to be 0.75.

In the case of G29U U34C, the self-cleavage was determined as 0.13.

Take G29U U34G: the self-cleavage was 0.27.

Consider G29U U34A, for which the self-cleavage came to 0.37.

On to G29C C42U, for which the self-cleavage turned out to be 0.22.

Turning to G29C C42A, the self-cleavage was 0.1.

For G29C C42G, the self-cleavage stood at 0.02.

Take G30C G33C: the self-cleavage stood at 0.03.

With G30C G33A, the self-cleavage came out at 0.06.

In the case of G30C G33U, the self-cleavage worked out at 0.07.

For the variant G29A C31A, the self-cleavage amounted to 0.43.

As for G29A C31U, the self-cleavage worked out at 0.95.

Consider G29A C31G, for which the self-cleavage stood at 0.39.

Turning to G29C U43A, the self-cleavage is 0.03.

Consider G29C U43C, for which the self-cleavage stood at 0.26.

Turning to G29C U43G, the self-cleavage is 0.01.

In the case of G30A, the self-cleavage turned out to be 1.87.

For the variant G30U, the self-cleavage was 1.62.

Regarding G30C, the self-cleavage was found to be 1.63.

Consider G29U C42A, for which the self-cleavage is 0.14.

With G29U C42U, the self-cleavage was determined as 0.44.

G29U C42G: the self-cleavage was determined as 0.04.

Take G30C G44A: the self-cleavage amounted to 0.2.

As to G30C G44U, the self-cleavage worked out at 0.09.

As for G30C G44C, the self-cleavage is 0.27.

Regarding G29U A41C, the self-cleavage is 0.05.

Regarding G29U A41U, the self-cleavage worked out at 0.9.

Regarding G29U A41G, the self-cleavage was 0.41.

G29C G35A: the self-cleavage was determined as 0.13.

Take G29C G35C: the self-cleavage amounted to 0.15.

Turning to G29C G35U, the self-cleavage came to 0.06.

As for G29U U32G, the self-cleavage is 0.27.

As for G29U U32A, the self-cleavage amounted to 0.34.

Regarding G29U U32C, the self-cleavage amounted to 0.16.

In the case of G30U U32A, the self-cleavage was determined as 0.13.

On to G30U U32C, for which the self-cleavage amounted to 0.23.

As to G30U U32G, the self-cleavage stood at 0.08.

For G29U G36U, the self-cleavage amounted to 0.05.

Consider G29U G36C, for which the self-cleavage came to 0.1.

With G29U G36A, the self-cleavage is 0.17.

On to G29A G44A, for which the self-cleavage worked out at 0.36.

Consider G29A G44U, for which the self-cleavage was 0.26.

On to G29A G44C, for which the self-cleavage came to 0.34.

Consider G30C A41U, for which the self-cleavage stood at 0.73.

Regarding G30C A41C, the self-cleavage worked out at 0.05.

As to G30C A41G, the self-cleavage came to 0.21.

As for G29U G44C, the self-cleavage is 0.44.

On to G29U G44A, for which the self-cleavage worked out at 0.41.

As to G29U G44U, the self-cleavage is 0.31.

On to G29C C45G, for which the self-cleavage turned out to be 0.19.

On to G29C C45A, for which the self-cleavage is 0.45.

On to G29C C45U, for which the self-cleavage is 0.67.

C31A: the self-cleavage turned out to be 0.15.

Consider G30U C45G, for which the self-cleavage was determined as 0.29.

With G30U C45U, the self-cleavage came to 1.11.

On to G30U C45A, for which the self-cleavage was 0.49.

As to G29U G30A, the self-cleavage turned out to be 1.92.

Turning to G29U G30U, the self-cleavage came out at 1.72.

Turning to G29U G30C, the self-cleavage was found to be 0.69.

Take G30A A39G: the self-cleavage was 0.11.

Take G30A A39U: the self-cleavage was found to be 1.69.

Regarding G30A A39C, the self-cleavage was determined as 0.4.

In the case of G30U U38A, the self-cleavage was 1.

G30U U38C: the self-cleavage was 1.12.

G30U U38G: the self-cleavage came out at 0.03.

Consider G30C C45U, for which the self-cleavage is 0.88.

G30C C45A: the self-cleavage stood at 0.33.

G30C C45G: the self-cleavage came to 0.21.

G30A U43C: the self-cleavage was 0.22.

Regarding G30A U43A, the self-cleavage turned out to be 0.12.

On to G29A G40C, for which the self-cleavage was found to be 0.08.

For the variant G29A G40A, the self-cleavage was 0.11.

For the variant G29A G40U, the self-cleavage turned out to be 0.12.

Regarding G30A G35U, the self-cleavage was determined as 0.09.

Take G30A G35A: the self-cleavage is 0.12.

Regarding G30A G35C, the self-cleavage was determined as 0.08.

Take G29C U34A: the self-cleavage is 0.28.

Take G29C U34C: the self-cleavage amounted to 0.1.

Consider G29C U34G, for which the self-cleavage was found to be 0.2.

As to U28G U32G, the self-cleavage was 0.24.

As to U28G U32A, the self-cleavage is 0.05.

Regarding U28G U32C, the self-cleavage was 0.27.

Consider G30A G40U, for which the self-cleavage worked out at 0.18.

For G30A G40C, the self-cleavage was 0.16.

With G30A G40A, the self-cleavage was 0.19.

On to G30U C46A, for which the self-cleavage came to 1.42.

Take G30U C46G: the self-cleavage stood at 1.29.

In the case of G30U C46U, the self-cleavage is 1.24.

For G29C G33U, the self-cleavage stood at 0.36.

For the variant G29C G33A, the self-cleavage was 0.12.

Take G29C G33C: the self-cleavage was 0.1.

Turning to G30A U34G, the self-cleavage was found to be 0.11.

Regarding G30A U34A, the self-cleavage came to 0.05.

For the variant G30A U34C, the self-cleavage amounted to 0.12.

As to U28G U43G, the self-cleavage was 0.

In the case of U28G U43A, the self-cleavage is 0.06.

U28G U43C: the self-cleavage came out at 0.08.

Turning to G30U C31A, the self-cleavage was found to be 0.19.

Regarding G30U C31G, the self-cleavage was determined as 0.06.

As to G30U C31U, the self-cleavage is 0.07.

For the variant G30C G40C, the self-cleavage is 0.18.

As for G30C G40A, the self-cleavage was 0.13.

For G30C G40U, the self-cleavage was 0.16.

Take G30C C31A: the self-cleavage came to 0.75.

For the variant G30C C31U, the self-cleavage was determined as 1.32.

Consider G30C C31G, for which the self-cleavage was determined as 0.44.

In the case of G30C C46A, the self-cleavage amounted to 0.45.

For the variant G30C C46U, the self-cleavage was determined as 1.09.

In the case of G30C C46G, the self-cleavage worked out at 0.59.

G29U: the self-cleavage is 1.09.

On to G29A, for which the self-cleavage worked out at 0.88.

For G29C, the self-cleavage worked out at 0.49.

Consider G30U G40A, for which the self-cleavage came out at 0.08.

As to G30U G40C, the self-cleavage was determined as 0.09.
